The record followed here is paper PMC4357707 (Nucleic Acids Research, 2015).

Data set [1] has as its target T1, HEN1-RHK389,397,477AAA (Arabidopsis thaliana, UniProt Q9C5Q8 1-942, R389A;H397A;K477A).
T1 sequence: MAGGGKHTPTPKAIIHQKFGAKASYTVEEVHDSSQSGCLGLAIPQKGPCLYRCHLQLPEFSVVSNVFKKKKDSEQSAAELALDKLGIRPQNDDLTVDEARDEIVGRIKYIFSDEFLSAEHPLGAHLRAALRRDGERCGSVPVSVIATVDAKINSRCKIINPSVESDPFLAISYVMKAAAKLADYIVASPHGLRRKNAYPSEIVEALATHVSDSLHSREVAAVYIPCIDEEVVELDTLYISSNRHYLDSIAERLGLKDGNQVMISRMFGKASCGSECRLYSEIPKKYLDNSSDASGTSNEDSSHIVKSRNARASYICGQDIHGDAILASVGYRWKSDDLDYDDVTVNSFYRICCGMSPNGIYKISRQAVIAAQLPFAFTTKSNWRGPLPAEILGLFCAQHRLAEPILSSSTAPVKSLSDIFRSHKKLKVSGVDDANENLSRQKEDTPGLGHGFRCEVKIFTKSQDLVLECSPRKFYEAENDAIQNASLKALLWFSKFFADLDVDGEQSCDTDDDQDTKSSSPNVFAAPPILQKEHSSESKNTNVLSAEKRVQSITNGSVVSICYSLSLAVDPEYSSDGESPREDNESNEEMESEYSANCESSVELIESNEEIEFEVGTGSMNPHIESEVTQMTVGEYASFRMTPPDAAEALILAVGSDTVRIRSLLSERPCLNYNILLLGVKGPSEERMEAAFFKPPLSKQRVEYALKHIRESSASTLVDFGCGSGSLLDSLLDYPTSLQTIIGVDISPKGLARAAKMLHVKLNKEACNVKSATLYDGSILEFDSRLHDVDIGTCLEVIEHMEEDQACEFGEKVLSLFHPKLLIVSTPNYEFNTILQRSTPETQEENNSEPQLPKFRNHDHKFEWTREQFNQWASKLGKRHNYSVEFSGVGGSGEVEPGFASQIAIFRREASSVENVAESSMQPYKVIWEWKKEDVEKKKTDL
Description: EMSA.

For another data set, the target named is T2, HYL1 (Arabidopsis thaliana, UniProt O04492 1-419).
T2 sequence: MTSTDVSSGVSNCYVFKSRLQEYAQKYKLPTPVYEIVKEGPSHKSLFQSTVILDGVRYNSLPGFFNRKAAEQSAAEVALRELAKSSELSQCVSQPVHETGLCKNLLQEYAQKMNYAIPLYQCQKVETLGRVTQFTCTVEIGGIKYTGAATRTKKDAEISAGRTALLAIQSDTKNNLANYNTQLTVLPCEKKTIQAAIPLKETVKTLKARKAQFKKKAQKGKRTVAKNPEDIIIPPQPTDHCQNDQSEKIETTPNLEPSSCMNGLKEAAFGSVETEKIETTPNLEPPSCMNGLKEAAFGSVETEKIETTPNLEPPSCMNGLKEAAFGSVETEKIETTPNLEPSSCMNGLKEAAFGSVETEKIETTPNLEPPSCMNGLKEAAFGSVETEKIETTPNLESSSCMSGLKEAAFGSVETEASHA
Description: EMSA.

Another data set addresses T3, HEN1 wt;HYL1 (Arabidopsis thaliana;Arabidopsis …, UniProt Q9C5Q8;O04492 1-942;1-419, |).
T3 sequence 1: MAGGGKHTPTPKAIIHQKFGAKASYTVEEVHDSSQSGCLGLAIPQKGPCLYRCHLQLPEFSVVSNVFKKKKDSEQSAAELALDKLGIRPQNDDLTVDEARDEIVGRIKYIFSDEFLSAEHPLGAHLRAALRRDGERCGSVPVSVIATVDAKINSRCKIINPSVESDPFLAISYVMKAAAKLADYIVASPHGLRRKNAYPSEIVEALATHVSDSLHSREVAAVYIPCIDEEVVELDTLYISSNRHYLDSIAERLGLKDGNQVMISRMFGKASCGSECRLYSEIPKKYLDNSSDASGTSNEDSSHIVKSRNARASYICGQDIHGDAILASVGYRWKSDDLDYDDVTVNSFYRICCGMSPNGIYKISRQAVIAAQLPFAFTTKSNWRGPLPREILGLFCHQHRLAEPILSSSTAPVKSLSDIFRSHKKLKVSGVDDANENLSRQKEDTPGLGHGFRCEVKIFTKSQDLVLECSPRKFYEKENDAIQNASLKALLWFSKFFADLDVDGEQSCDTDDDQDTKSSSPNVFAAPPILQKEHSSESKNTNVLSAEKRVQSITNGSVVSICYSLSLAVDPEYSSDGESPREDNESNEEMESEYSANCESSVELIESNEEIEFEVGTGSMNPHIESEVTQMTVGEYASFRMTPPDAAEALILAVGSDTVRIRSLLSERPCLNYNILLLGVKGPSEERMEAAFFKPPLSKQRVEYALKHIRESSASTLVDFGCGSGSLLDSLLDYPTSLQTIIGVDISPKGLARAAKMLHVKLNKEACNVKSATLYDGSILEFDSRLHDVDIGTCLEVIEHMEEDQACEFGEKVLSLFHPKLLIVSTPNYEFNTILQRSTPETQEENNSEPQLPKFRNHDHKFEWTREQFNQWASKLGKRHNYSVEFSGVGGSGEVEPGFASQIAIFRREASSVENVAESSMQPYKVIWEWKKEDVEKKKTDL
T3 sequence 2: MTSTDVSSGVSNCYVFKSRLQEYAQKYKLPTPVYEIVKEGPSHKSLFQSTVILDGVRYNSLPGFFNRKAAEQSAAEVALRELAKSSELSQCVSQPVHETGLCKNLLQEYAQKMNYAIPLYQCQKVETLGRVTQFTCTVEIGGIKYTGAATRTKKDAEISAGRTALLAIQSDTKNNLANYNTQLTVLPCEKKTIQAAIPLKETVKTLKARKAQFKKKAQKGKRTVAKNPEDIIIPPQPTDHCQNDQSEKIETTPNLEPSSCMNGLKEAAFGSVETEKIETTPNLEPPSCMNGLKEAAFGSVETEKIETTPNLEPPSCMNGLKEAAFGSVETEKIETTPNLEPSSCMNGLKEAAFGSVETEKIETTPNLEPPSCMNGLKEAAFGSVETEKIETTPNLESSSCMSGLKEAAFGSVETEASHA
Put plainly: EMSA.

For data set [2], the target named is T4, HEN1-R^1LR^2 (His-tagged, residues 1–519) (Arabidopsis thaliana, UniProt Q9C5Q8 1-519).
T4 sequence (looked up): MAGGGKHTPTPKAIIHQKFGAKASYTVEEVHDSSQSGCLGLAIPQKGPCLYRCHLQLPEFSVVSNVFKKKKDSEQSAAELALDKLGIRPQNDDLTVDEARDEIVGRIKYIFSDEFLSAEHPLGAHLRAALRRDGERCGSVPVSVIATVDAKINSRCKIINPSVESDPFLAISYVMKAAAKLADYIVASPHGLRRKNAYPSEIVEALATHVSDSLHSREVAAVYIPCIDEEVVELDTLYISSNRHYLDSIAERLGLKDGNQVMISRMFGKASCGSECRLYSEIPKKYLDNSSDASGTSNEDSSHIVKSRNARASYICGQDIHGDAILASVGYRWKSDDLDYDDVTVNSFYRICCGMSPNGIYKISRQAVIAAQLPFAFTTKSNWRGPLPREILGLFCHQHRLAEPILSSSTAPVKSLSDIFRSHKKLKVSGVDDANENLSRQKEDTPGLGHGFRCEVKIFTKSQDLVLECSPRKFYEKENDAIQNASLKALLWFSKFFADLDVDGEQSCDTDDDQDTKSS
Description: pull-down.

Another data set concerns the target T5, HEN1 Δ38-45 (Arabidopsis thaliana, UniProt Q9C5Q8 1-37+=G+46-942, internal_change).
T5 sequence: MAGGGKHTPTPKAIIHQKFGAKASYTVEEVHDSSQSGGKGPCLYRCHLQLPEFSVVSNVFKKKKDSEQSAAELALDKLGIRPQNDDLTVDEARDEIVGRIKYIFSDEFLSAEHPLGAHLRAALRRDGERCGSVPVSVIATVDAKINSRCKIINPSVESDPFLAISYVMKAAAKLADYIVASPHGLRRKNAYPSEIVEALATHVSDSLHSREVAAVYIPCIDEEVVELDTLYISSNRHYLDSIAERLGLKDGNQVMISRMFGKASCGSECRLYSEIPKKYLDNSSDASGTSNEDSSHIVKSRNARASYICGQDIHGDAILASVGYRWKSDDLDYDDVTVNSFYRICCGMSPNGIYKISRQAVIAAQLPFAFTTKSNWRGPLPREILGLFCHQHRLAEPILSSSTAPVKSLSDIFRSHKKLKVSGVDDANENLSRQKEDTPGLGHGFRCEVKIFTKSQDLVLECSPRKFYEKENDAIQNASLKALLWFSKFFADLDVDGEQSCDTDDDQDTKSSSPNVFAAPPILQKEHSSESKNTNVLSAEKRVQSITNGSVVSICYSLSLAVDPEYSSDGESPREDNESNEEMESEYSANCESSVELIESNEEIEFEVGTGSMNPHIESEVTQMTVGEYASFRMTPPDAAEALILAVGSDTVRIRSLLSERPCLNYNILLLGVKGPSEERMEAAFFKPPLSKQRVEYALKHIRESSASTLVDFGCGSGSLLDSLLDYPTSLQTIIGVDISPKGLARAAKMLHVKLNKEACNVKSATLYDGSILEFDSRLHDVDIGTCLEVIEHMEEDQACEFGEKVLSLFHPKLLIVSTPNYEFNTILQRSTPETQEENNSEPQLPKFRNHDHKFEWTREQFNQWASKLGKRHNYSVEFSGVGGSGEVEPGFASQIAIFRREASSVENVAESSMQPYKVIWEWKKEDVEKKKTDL
Description: EMSA.

For a further data set, the target named is T6, HEN1 wt (Arabidopsis thaliana, UniProt Q9C5Q8 1-942).
T6 sequence: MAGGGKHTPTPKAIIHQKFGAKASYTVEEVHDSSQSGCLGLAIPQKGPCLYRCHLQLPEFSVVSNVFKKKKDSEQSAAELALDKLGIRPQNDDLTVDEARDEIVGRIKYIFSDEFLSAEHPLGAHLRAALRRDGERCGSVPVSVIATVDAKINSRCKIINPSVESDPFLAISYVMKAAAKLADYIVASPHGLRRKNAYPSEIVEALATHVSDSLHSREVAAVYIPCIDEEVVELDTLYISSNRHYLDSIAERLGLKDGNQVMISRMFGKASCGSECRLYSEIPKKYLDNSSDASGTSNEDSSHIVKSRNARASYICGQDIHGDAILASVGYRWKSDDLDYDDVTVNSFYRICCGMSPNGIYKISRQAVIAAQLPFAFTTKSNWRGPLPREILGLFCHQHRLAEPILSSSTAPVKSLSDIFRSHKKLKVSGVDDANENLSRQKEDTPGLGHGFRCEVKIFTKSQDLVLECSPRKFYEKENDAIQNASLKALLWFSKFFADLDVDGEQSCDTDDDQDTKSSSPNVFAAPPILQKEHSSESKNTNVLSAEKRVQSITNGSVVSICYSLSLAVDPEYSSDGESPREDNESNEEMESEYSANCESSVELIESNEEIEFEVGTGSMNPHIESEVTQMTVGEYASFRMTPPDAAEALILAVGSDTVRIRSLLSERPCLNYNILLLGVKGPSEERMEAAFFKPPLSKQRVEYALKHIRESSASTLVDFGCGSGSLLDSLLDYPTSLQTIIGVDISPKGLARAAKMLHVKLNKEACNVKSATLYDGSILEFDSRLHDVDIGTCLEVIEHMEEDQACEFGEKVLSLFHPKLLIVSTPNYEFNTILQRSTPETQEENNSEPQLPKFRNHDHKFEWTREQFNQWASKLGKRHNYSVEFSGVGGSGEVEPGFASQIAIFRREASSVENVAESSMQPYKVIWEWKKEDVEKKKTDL
Description: EMSA.

Data set [3] concerns the target T1, HEN1-RHK389,397,477AAA. Description: EMSA. This is another data set of the same source.

B1: siR173/siR173* (dsRNA)
RNA 1: UUAACGCUUGCAGAGAGAAUCAC
RNA 2: GAUUCUCUCUGCAAGCGUUAAAG
For B1, the dissociation constant (Kd) (in general, the equilibrium constant for the complex coming apart) in the data set with HEN1-RHK389,397,477AAA [1] turned out to be 293 ± 27 nM. The binding result with HYL1 and in the data set with HEN1 wt;HYL1 was “binds” throughout.

B2: GST-HYL1 (GST-fused full-length HYL1) (natural protein, UniProt O04492 1-419, looked up)
chain: MTSTDVSSGVSNCYVFKSRLQEYAQKYKLPTPVYEIVKEGPSHKSLFQSTVILDGVRYNSLPGFFNRKAAEQSAAEVALRELAKSSELSQCVSQPVHETGLCKNLLQEYAQKMNYAIPLYQCQKVETLGRVTQFTCTVEIGGIKYTGAATRTKKDAEISAGRTALLAIQSDTKNNLANYNTQLTVLPCEKKTIQAAIPLKETVKTLKARKAQFKKKAQKGKRTVAKNPEDIIIPPQPTDHCQNDQSEKIETTPNLEPSSCMNGLKEAAFGSVETEKIETTPNLEPPSCMNGLKEAAFGSVETEKIETTPNLEPPSCMNGLKEAAFGSVETEKIETTPNLEPSSCMNGLKEAAFGSVETEKIETTPNLEPPSCMNGLKEAAFGSVETEKIETTPNLESSSCMSGLKEAAFGSVETEASHA
In the case of B2, the binding result in data set [2] is listed as “binds”.

B3: miR173CH3/miR173*CH3 (dsRNA)
RNA 1: UUCGCUUGCAGAGAGAAAUCAC
RNA 2: GAUUCUCUGUGUAAGCGAAAG
modifications: 2'-O-methyl on 3'-terminal nucleotide of both strands
B3: the equilibrium dissociation constant (Kd) in the data set with HEN1 Δ38-45 is 2.1 ± 0.1 nM; in the data set with HEN1 wt, 7.2 ± 0.1 nM. For the same molecule, the binding result in the data set with HEN1-RHK389,397,477AAA [3] was “no binding”.
